Target: GLI3 (His-tagged; probably zinc-finger fragment) (UniProt P10071 480-632)
Assay: EMSA; dose-dependent shift; 5 mM MgCl2; EMSA: 20 mM Tris-HCl pH 7.5, 50 mM NaCl, 5 mM MgCl2, 0.2 mM EDTA, 1 mM DTT, 1 h at room temperature; 6% native PAGE
Conditions: protein: recombinant; tags: His; label: biotin; blunt

Chain of GLI3 (His-tagged; probably zinc-finger fragment) (P10071 480-632): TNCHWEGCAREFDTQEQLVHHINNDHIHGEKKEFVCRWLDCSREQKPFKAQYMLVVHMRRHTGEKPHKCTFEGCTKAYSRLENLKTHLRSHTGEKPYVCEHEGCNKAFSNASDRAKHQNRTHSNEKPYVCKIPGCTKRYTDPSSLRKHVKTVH

B1: rs72856331-G (dsDNA)
DNA 1: CCCCAAGCAGGGGGTGGCCCCTGAG
DNA 2: CTCAGGGGCCACCCCCTGCTTGGGG
binding result: binds
